Reference: patent publication US20130158095

Biological target: TK substrate 1 (HTRF KinEASE-TK kit; Cisbio Inc.)

B1: EML4-ALK fusion polypeptide v1 having the FLAG tag at the N-terminus (protein)
chain: GFAGSLDDSISAASTSDVQDRLSALESRVQQQEDEITVLKAALADVLRRLAISEDHVASVKKSVSSKGQPSPRAVIPMSCITNGSGANRKPSHTSAVSIAGKETLSSAAKSGTEKKKEKPQGQREKKEESHSNDQSPQIRASPSPQPSSQPLQIHRQTPESKNATPTKSIKRPSPAEKSHNSWENSDDSRNKLSKIPSTPKLIPKVTKTADKHKDVIINQEGEYIKMFMRGRPITMFIPSDVDNYDDIRTELPPEKLKLEWAYGYRGKDCRANVYLLPTGEIVYFIASVVVLFNYEERTQRHYLGHTDCVKCLAIHPDKIRIATGQIAGVDKDGRPLQPHVRVWDSVTLSTLQIIGLGTFERGVGCLDFSKADSGVHLCVIDDSNEHMLTVWDWQKKAKGAEIKTTNEVVLAVEFHPTDANTIITCGKSHIFFWTWSGNSLTRKQGIFGKYEKPKFVQCLAFLGNGDVLTGDSGGVMLIWSKTTVEPTPGKGPKVYRRKHQELQAMQMELQSPEYKLSKLRTSTIMTDYNPNYCFAGKTSSISDLKEVPRKNITLIRGLGHGAFGEVYEGQVSGMPNDPSPLQVAVKTLPEVCSEQDELDFLMEALIISKFNHQNIVRCIGVSLQSLPRFILLELMAGGDLKSFLRETRPRPSQPSSLAMLDLLHVARDIACGCQYLEENHFIHRDIAARNCLLTCPGPGRVAKIGDFGMARDIYRASYYRKGGCAMLPVKWMPPEAFMEGIFTSKTDTWSFGVLLWEIFSLGYMPYPSKSNQEVLEFVTSGGRMDPPKNCPGPVYRIMTQCWQHQPEDRPNFAIILERIEYCTQDPDVINTALPIEYGPLVEEEEKVPVRPKDPEGVPPLLVSQQAKREEERSPAAPPPLPTTSSGKAAKKPTAAEVSVRVPRGPAVEGGHVNMAFSQSNPPSELHRVHGSRNKPTSLWNPTYGSWFTEKPTKKNNPIAKKEPHERGNLGLEGSCTVPPNVATGRLPGASLLLEPSSLTANMKEVPLFRLRHFPCGNVNYGYQQQGLPLEAATAPGAGHYEDTILKSKNSMNQPGP
count of HTRF (that is, phosphorylation of the peptide substrate): increased by about 12 times by the addition of ATP compare to no addition of ATP
